The record followed here is US20180177842A1 (CANIMGUIDE THERAPEUTICS, published 2018).

Ends that are not written are not given here.

T1: His-tagged P3028 (human, also: His tag, length and end not given here)
T1 construct: in solution at 0.5 ug/mL, detected with mouse anti-His antibody and rabbit anti-mouse peroxidase (rampo); also called PGE73; His-tag-P3028; not shown: His tag
T1 peptide: VFDEFKPLVEEPQNLIK

The target of the assay is T1, His-tagged P3028. Briefly: PEPSCAN ELISA, peptide on chip.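 Also: binding detected by peroxidase ELISA with ABTS, OD405 colour imaged by CCD camera before and after staining, raw OD405 reported as rampo units, air-bubble wells scored 0.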 A general note: ELISA stands for enzyme-linked immunosorbent assay.
For KKEDTFFVKLSLFTER [SEQ ID NO 285], the “RAMPO Score” value is 528 rampo units.

With KKQDTFFVKLSLFTER [SEQ ID NO 293], the “RAMPO Score” value came to 473 rampo units.

With KKLETFFVKLSLFTER [SEQ ID NO 299], the “RAMPO Score” value was determined as 417 rampo units.

On to KKMDTFFVKLSLFTER [SEQ ID NO 291], for which the “RAMPO Score” value is 460 rampo units.

As to KKLDNFFVKLSLFTER [SEQ ID NO 306], the “RAMPO Score” value worked out at 436 rampo units.

Take KKNDTFFVKLSLFTER [SEQ ID NO 292]: the “RAMPO Score” value was 374 rampo units.

With KKSDTFFVKLSLFTER [SEQ ID NO 295], the “RAMPO Score” value amounted to 393 rampo units.

Take KKLYTFFVKLSLFTER [SEQ ID NO 303]: the “RAMPO Score” value was determined as 422 rampo units.

As to KKLITFFVKLSLFTER [SEQ ID NO 300], the “RAMPO Score” value came out at 430 rampo units.

For KKKDTFFVKLSLFTER [SEQ ID NO 290], the “RAMPO Score” value amounted to 386 rampo units.

In the case of KKTDTFFVKLSLFTER [SEQ ID NO 296], the “RAMPO Score” value was 451 rampo units.

For KKLDCFFVKLSLFTER [SEQ ID NO 304], the “RAMPO Score” value was determined as 449 rampo units.

For the molecule KKLWTFFVKLSLFTER [SEQ ID NO 302], the “RAMPO Score” value turned out to be 443 rampo units.

Regarding KKLDRFFVKLSLFTER [SEQ ID NO 309], the “RAMPO Score” value came to 430 rampo units.

For the molecule KKLDPFFVKLSLFTER [SEQ ID NO 307], the “RAMPO Score” value turned out to be 427 rampo units.

Turning to KKFDTFFVKLSLFTER [SEQ ID NO 286], the “RAMPO Score” value was 393 rampo units.

With KKIDTFFVKLSLFTER [SEQ ID NO 289], the “RAMPO Score” value was 454 rampo units.

Take KKVDTFFVKLSLFTER [SEQ ID NO 297]: the “RAMPO Score” value came to 377 rampo units.

For KKHDTFFVKLSLFTER [SEQ ID NO 288], the “RAMPO Score” value was determined as 477 rampo units.

As for KKLATFFVKLSLFTER [SEQ ID NO 298], the “RAMPO Score” value was 494 rampo units.

Consider KKGDTFFVKLSLFTER [SEQ ID NO 287], for which the “RAMPO Score” value was 563 rampo units.

For KKLDMFFVKLSLFTER [SEQ ID NO 305], the “RAMPO Score” value turned out to be 475 rampo units.

On to KKRDTFFVKLSLFTER [SEQ ID NO 294], for which the “RAMPO Score” value stood at 370 rampo units.

For the molecule KKLVTFFVKLSLFTER [SEQ ID NO 301], the “RAMPO Score” value stood at 424 rampo units.

KKLDQFFVKLSLFTER [SEQ ID NO 308]: the “RAMPO Score” value worked out at 535 rampo units.

For KKLDSFFVKLSLFTER [SEQ ID NO 310], the “RAMPO Score” value amounted to 458 rampo units.
